Test results from paper PMC7282817.

Target: Spen RRM2-4 RRM3 Mt ((SHARP named as human homolog for the pET28a constructs; gene listed as mouse NM_019763.2)) (UniProt Q96T58)
Test: fluorescence anisotropy
Settings: pH 8.3; FA: 45 mM KCl, 5 mM NaCl, 50 mM Tris pH 7.5 (WT) or 8.3 (RRM3 Mt), 5% glycerol, RNA 1-3 nM, room temperature 40-60 min; competition EMSA: 50 mM Tris pH 7.5 …

Chain of UniProt Q96T58 (Q96T58 whole entry): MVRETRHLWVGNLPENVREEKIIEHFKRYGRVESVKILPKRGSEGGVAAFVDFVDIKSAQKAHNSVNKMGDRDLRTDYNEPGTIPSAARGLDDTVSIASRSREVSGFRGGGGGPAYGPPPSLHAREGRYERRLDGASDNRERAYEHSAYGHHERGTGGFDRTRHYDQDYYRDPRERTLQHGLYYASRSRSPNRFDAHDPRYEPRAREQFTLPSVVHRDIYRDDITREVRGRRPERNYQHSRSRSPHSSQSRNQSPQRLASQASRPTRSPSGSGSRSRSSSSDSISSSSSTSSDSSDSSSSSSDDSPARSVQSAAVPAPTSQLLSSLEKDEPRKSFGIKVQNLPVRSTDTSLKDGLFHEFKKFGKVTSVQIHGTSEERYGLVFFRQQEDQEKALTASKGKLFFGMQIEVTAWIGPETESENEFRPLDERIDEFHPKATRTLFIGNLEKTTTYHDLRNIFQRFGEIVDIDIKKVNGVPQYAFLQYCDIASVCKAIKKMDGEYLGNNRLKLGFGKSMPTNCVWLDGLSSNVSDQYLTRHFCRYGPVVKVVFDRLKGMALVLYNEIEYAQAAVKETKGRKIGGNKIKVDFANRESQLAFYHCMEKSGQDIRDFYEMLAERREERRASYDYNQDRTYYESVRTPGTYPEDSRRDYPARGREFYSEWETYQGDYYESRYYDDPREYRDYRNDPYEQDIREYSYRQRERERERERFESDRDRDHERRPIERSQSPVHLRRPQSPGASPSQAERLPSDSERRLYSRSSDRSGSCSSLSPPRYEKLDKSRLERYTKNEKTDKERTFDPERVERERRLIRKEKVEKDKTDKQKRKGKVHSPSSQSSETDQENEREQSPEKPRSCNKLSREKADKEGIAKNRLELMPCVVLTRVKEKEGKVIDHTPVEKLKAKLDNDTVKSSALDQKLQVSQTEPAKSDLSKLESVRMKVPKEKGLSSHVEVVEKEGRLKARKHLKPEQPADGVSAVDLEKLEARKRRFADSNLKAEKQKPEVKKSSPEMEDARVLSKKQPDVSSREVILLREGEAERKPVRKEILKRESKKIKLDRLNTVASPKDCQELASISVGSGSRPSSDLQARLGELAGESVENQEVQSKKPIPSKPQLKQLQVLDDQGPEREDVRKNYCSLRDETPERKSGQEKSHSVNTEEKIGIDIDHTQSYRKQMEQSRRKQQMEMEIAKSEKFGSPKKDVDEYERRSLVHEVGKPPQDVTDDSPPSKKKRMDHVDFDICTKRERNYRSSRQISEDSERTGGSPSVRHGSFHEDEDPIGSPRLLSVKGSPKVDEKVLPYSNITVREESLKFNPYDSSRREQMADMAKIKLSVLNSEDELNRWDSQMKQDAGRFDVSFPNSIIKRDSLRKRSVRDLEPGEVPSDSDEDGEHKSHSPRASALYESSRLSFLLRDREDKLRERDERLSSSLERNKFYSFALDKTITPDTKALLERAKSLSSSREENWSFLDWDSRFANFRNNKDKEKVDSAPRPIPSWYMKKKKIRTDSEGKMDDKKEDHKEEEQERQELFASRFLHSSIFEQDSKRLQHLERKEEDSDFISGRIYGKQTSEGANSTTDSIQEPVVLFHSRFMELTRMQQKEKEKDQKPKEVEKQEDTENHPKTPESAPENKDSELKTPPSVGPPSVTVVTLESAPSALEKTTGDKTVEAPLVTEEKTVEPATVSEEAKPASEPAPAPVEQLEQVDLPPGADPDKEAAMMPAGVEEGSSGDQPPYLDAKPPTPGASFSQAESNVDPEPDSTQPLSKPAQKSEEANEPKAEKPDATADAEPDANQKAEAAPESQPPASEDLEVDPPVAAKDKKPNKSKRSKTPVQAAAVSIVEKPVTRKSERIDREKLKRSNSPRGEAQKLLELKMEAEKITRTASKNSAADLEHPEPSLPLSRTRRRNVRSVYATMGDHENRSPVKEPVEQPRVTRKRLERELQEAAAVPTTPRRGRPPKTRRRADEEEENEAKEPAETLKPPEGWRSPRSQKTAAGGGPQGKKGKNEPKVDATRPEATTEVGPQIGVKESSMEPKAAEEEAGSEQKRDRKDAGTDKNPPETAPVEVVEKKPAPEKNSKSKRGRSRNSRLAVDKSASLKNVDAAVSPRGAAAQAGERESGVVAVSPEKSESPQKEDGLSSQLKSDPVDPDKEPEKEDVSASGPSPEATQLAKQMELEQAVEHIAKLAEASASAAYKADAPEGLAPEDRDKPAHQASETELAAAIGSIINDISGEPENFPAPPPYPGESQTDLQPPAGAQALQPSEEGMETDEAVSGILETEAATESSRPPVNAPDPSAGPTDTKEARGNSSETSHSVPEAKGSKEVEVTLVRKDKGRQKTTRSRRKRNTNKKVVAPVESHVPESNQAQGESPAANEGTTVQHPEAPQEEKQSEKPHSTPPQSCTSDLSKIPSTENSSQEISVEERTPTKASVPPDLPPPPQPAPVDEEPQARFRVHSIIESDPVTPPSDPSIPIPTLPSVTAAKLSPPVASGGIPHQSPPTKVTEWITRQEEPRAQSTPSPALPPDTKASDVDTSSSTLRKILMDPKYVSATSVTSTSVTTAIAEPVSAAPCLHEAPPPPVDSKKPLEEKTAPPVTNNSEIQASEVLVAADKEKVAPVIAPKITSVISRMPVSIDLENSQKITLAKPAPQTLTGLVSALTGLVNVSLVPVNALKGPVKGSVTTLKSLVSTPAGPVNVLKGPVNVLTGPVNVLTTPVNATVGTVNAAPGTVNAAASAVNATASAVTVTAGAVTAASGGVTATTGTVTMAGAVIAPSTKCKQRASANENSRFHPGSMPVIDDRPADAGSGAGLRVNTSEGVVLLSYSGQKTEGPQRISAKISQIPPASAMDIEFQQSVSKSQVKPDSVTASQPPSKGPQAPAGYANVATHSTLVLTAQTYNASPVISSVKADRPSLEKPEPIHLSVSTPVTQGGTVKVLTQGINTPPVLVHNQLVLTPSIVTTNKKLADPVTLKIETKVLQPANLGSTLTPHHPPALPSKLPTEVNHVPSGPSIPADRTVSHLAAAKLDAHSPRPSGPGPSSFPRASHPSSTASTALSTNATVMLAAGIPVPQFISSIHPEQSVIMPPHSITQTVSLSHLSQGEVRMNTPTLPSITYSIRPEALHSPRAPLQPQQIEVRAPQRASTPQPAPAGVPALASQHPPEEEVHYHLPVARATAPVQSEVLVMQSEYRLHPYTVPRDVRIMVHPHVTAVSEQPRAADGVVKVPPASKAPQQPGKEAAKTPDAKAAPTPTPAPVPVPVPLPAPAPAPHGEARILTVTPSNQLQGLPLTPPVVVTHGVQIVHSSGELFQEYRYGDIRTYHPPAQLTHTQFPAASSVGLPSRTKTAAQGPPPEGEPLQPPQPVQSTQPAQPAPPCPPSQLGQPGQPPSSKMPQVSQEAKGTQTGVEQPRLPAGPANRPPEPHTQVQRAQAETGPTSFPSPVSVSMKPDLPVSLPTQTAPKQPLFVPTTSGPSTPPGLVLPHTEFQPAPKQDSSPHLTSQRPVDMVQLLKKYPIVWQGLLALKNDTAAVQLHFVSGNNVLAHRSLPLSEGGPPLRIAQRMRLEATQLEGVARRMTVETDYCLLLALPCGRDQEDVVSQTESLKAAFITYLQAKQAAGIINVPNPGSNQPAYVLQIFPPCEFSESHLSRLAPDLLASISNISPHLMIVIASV

In the case of “GAAAUUUCUCUCUGGGCCUUAUAGCAGGAGUACUCUGUUCCCUUUUGUGUCUUGUCUAAUGUCCGGUGCACCAAUCUGUUCUCGUGUUCAAUUCAUGUAUGUUCGUGUCCAGU [ERV 495 (113 nt)]”, the binding signal (affinity relative to RRM2-4) is reported as 0.5.
Sequence “GAUCAGAGUAACUGUCUUGGCUACAUUCUUUUCUCUCGCCACCUAGCCCCUCUUCUCUUCCAGGUUUCCAAAAUGCCUUUCCAGGCUAGAACCCAGGUUGUGGUCUGCUGG [ERV 302 (111 nt)]” has a binding signal (affinity relative to RRM2-4) of 0.5.
Sequence “GAUUCCAGGCAGAACUGUUGAGCAUAGAUAAUUUUCCCCCCUCAGGCCAGCUUUUUCUUUUUUUAAAUUUUGUUAAUAAAAGGGAG [ERV 205 (86 nt)]” has a binding signal (affinity relative to RRM2-4) of 0.5.
In the case of “GGAACUCGUUCCUUCUCCUUAGCCCAUCGGGGCCAUGGAUACCUGCUUUUAACCUUUCUCGGUCCAUCGGGACCUCGGAUACCUG [Xist A-repeat (85 nt)]”, the binding signal (affinity relative to RRM2-4) is reported as 0.5.
Sequence “GGUACCUUAAAUCCUUGCUCUCACCCAAAAGAUUCAGAGACAAUAUCCUUUUAUUACUUAGGGUUUUAGUUUACUACAAAAGUUUCUACAAAAAAUAAAGCUUUUAUAA [ERV 411 (109 nt)]” has a binding signal (affinity relative to RRM2-4) of 0.5.
Work on “GGUUAAAACUGCUAUUGUUCCAUUGACUGCAGCUUGCAGUUUGAUUUCAAAUUUAAGAUCUUUAAUUCACCUGUAUACUGUAAUUAAGAUAAUUACAAGAGUAAUCAUCUUAUG [ERV 509 (114 nt)]” yielded a binding signal (affinity relative to RRM2-4) of 0.5.
